Results published in article PMC5864917 (2018).

T1: SERA5 SE36 (Plasmodium falciparum, UniProt Q9TY95)
T1 chain: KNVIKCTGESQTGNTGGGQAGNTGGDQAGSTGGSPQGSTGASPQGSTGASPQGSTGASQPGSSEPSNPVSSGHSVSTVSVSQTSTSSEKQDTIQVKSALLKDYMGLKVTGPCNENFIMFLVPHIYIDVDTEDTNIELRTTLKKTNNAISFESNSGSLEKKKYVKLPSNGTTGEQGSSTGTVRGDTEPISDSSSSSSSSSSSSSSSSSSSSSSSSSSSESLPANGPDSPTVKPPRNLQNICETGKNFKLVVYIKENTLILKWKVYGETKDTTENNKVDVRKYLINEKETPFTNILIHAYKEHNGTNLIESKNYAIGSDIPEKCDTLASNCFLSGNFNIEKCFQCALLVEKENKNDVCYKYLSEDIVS

B1: Vitronectin (protein)
chain: ATWLSLFSSEESNLGANNYDDYRMDWLVPATCEPIQSVFFFSGDKYYRVNLRTRRVDTVDPPYPRSIAQYWLGCPAPGHL

Legend:
[1] = molecular target: biotinylated SE36 (Plasmodium falciparum (Honduras-1)); test: SPR; Biacore T200, chip SA; biotinylated SE36 immobilized at 200 RU via streptavidin; purified VTN 1.25-20 μg/mL (~17.9-285.7 nM) flowed at 20 μL/min, 25 °C, PBS with 0.05% Tween 20; fitted to 1:1 binding and bivalent analyte models
[2] = molecular target: T1, SERA5 SE36; test: SPR

Row | Molecule | KD1 (bivalent analyte model, first interaction) [1] [nM] | ka1 (bivalent analyte model, first interaction) [1] [M⁻¹ s⁻¹] | kd1 (bivalent analyte model, first interaction) [1] [s⁻¹] | Kd [2] [nM]
1 | Vitronectin (VTN), human (natural protein) | 3.7 | 550000 | 0.002 | 
2 | B1 |  |  |  | 3.7
